In the experiment the target is T1, human integrin alpha10 on human cancer cell lines (BT549, PC-3, A549, MiaPaCa-2, PANC-1) (human, UniProt O75578 23-1167).
T1 construct: Endogenous protein on human cell lines; also called integrin alpha10 polypeptide; alpha10 subunit of integrin alpha10 beta1
T1 sequence: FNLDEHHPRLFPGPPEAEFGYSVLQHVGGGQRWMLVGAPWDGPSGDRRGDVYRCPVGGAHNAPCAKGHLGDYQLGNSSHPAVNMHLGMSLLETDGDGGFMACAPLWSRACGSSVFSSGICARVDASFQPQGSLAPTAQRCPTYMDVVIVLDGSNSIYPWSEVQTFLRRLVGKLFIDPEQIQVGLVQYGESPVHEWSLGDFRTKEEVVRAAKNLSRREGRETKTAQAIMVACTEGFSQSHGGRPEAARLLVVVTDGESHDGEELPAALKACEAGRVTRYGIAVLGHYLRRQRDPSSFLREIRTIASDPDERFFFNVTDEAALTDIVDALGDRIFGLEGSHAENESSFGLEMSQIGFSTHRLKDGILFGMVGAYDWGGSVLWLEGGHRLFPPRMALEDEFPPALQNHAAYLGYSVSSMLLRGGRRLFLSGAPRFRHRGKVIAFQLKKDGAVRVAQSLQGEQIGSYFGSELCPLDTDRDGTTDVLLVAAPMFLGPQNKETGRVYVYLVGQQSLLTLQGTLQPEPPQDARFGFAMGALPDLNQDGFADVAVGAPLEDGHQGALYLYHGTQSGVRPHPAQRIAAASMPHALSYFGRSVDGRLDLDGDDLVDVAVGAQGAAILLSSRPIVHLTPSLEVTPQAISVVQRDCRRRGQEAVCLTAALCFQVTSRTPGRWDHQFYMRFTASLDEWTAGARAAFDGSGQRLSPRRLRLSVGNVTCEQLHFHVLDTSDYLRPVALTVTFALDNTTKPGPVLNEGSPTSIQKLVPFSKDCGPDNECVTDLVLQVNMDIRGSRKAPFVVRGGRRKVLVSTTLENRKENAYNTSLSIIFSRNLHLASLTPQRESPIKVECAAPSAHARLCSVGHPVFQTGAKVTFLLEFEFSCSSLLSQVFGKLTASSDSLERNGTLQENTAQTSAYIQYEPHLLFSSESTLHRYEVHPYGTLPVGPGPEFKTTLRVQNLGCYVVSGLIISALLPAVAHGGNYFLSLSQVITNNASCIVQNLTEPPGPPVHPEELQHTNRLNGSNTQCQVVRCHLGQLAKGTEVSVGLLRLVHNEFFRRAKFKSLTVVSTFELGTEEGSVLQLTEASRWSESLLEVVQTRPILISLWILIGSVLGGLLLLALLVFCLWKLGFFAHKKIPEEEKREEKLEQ
The experiment can be described thus: flow cytometry competition on BT549 cells. Here is the method:
The binding competition assay of the antibody mouse monoclonal antibody mAbα10 and the human monoclonal antibody Th101 was performed in integrin alpha10 overexpressing C2C12α10 cells and triple-negative breast cancer BT549 cells. The cells were incubated with single or mixed antibodies at the indicated concentrations (μg/ml) for 30 min followed by two washed, and then stained with secondary antibodies for 30 min. Donkey anti-human Alexa 488 was used as a secondary antibody to the human monoclonal antibody Th101. Donkey anti-mouse Alexa 647 was used as a secondary antibody to the mouse monoclonal antibody mAbα10. The binding of the antibodies was analyzed by flow cytometry, wherein the fluorescence signal of the secondary antibodies were detected.

The values below come from patent US20220177591A1 (TARGINTA, published 2022).

B1: human monoclonal anti-integrin alpha10 antibody Th101 (antibody, V domains shown)
VH: EVQLLESGGGLVQPGGSLRLSCAASGFTFSDYGMNWVRQAPGKGLEWVAVISYDGSNKYYADSVKGRFTISRDNSKNTLYLQMNSLRAEDTAVYYCARGGNWGVFDYWGQGTLVTVSS
VL: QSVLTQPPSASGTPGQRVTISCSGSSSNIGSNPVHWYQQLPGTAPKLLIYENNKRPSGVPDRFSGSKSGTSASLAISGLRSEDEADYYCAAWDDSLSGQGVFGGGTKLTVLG
notes: It is a human monoclonal antibody detected with an anti-human secondary; Its negative control Th301 is human IgG1 VH/Lambda
Regarding B1, the binding result is recorded as “binds”.
